How the values were obtained:
[1] = molecular target: [Alexa488]-QnrB1 (QnrB1-His, N-terminally labelled with AlexaFluor 488); test: fluorescence polarisation; as a1 but subunits with 1 mM ADPNP, incubated for an additional 1 h at room temperature with addition of 2 mM MgCl2
[2] = molecular target: [Alexa488]-QnrB1 (QnrB1-His, N-terminally labelled with AlexaFluor 488); test: fluorescence polarisation; fluorescence anisotropy; 50 nM Alexa488-labelled QnrB1 mixed with gyrase subunit(s) in EMSA buffer (30 mM Tris-Cl pH 7.5, 75 mM KCl, 6% glycerol, 2 mM MgCl2, 1 mM DTT), 10 min at room temperature; one site specific binding fit
[3] = molecular target: GyrB 43 kDa domain (GyrB43), N-terminal ATPase-transducer domain of E. coli GyrB (E. coli)
[4] = molecular target: E. coli DNA gyrase A2B2 complex (E. coli) (UniProt P0AES4)
[5] = molecular target: E. coli DNA gyrase A2B2 complex (E. coli) (UniProt P0AES4); test: native gel or EMSA; 20 nM 147 bp pBR322 dsDNA fragment with 0.2 μM reconstituted gyrase in EMSA buffer, QnrB1 added as indicated; 30 min at 25°C; 6% polyacrylamide gel in TBM; IC50 = QnrB1 concentration that halves the bound DNA
[6] = molecular target: E. coli DNA gyrase subunit B, full-length untagged (E. coli) (UniProt P0AES6)
[7] = molecular target: GyrB 43 kDa domain (GyrB43), N-terminal ATPase-transducer domain of E. coli GyrB (E. coli); remark: listed apart in the source
[8] = molecular target: Gyrase (Escherichia coli) (UniProt P0AES4); conditions: cited from earlier work

Substance	Kd [1]	Kd [2]	other results
E. coli DNA gyrase A2B2 complex (from UniProt P0AES4 1-875; P0AES6 1-804)	1780 nM	80 nM	–
E. coli DNA gyrase subunit A, full-length untagged (from UniProt P0AES4 1-875) (natural protein)	–	3900 nM	–
E. coli DNA gyrase subunit B, full-length untagged (from UniProt P0AES6 1-804) (natural protein)	3800 nM	2530 nM	–
GyrB 43 kDa domain (GyrB43), N-terminal ATPase-transducer domain of E. coli GyrB (domain or fragment)	12200 nM	1770 nM	–
QnrB1 with a C-terminal 6xHis tag (wild type, unlabelled) (natural protein)	–	–	ATPase reaction rate of 4 μM GyrB43 with 5 μM QnrB1 against no QnrB1 [3]: 17 fold; DNA-independent ATP hydrolysis rate of 50 nM gyrase (A2B2) with 5 μM QnrB1 [4]: 3 fold; IC50 [5]: 10900 nM; ATPase activity of the full-length GyrB subunit with QnrB1 (not shown) [6]: < 2 fold; QnrB1-dependent activation of GyrB43 ATPase activity (4 μM GyrB43, 1 mM ATP), Km for QnrB1 of a Michaelis-Menten fit [7]: 3.61 µM
YacG (from UniProt C4ZRJ5)	–	–	Ki [8]: 35 nM

Source: paper PMC7897471
